The data set deals with SARS-CoV-2 nsp12 (RdRp), wild type;SARS-CoV-2 nsp7;SARS-CoV-2 nsp8 (SARS-CoV-2;SARS-CoV-2;SARS-CoV-2, UniProt P0DTD1;P0DTD1;P0DTD1 4393-5324;3860-3942;3943-4140, ||). Put plainly: EMSA (native gel); no NTP. The note with it: protein: recombinant;recombinant;recombinant; tags: C-terminal His10 (TEV-cleaved protein A);GST-3C construct (E. coli); 9.4 kDa on gel;GST-3C construct (E. coli); 22 kDa on gel; copies: 1;1;2; label: Cy3 at template 5' end; Cy5 internal at primer position 12. For orientation: In EMSA bound probe runs differently from free probe, usually more slowly.

B1: Extension Template P1 / Extension Primer P12 short (overhang RNA) (structured_RNA)
RNA 1: AAAAAAAAUUUUUUUUUUUUUUUAAUUCUUAAUCUCACAUAGC
RNA 2: GCUAUGUGAGAUUAAGAAUU
B1: the binding result is reported as “binds”.

Source of the values: article PMC12038395, “Mechanistic insights into the activity of SARS-CoV-2 RNA polymerase inhibitors using single-molecule FRET”.
